Laboratory results published in patent US11312773B2, “Anti-PD-L1 antibody” (Fuso Pharmaceutical Industries, Ltd., priority 2016, dated 2022).

Columns and labels:
[1] = system: porcine PD-L1; assay: Flow cytometry reactivity with porcine PD-L1-EGFP expressing COS-7 cells; assay type: binding; details: 10 μg/ml
Method: COS-7 cells were subcultured at a density of 5×10^4 cells/cm^2 in 6-well plates, and then cultured overnight in RPMI 1640 medium containing 10% inactivated fetal bovine serum and 0.01% L-glutamine at 37° C. in the presence of 5% CO2. The pEGFP-N2-ovPD-1, pEGFP-N2-ovPD-L1, pEGFP-N2-poPD-1, pEGFP-N2-poPD-L1 or pEGFP-N2 (negative control) was introduced into COS-7 cells at 0.4 μg/cm^2 using Lipofectamine 2000 (Invitrogen). The cells were cultured for 48 hours (ovPD-1-EGFP expressing cell, ovPD-L1-EGFP expressing cell, poPD-1-EGFP expressing cell, and poPD-L1-EGFP expressing cell). In order to confirm the expression of ovine PD-1, ovine PD-L1, porcine PD-1 and porcine PD-L1 in the thus prepared expressing cells, intracellular localization of EGFP was visualized with an inverted confocal laser microscope LSM700 (ZEISS) or an all-in-one fluorescence microscope BZ-9000 (KEYENCE). It was confirmed by flow cytometry that rat anti-bovine PD-L1 monoclonal antibody cross-reacts with ovine and porcine PD-LL. […] After washing, the cells were reacted with allophycocyanine-labeled anti-rat Ig goat antibody (Beckman Coulter) at room temperature for 30 min. For analysis, FACS Verse (BD Bioscience) was used. As a negative control antibody, rat IgG2a (κ) isotype control (BD Bioscience) was used. For every washing operation and dilution of antibodies, 1% bovine serum albumin supplemented PBS was used.

[2] = system: water buffalo leukocytes; assay: Flow cytometry reactivity with water buffalo leukocytes; assay type: binding, water buffalo (Bubalus bubalis)
Method: Peripheral blood of water buffalo (Bubalus bubalis; Asian water buffalo) was hemolyzed with ACK buffer to isolate leukocytes. […] After washing, reaction with allophycocyanine-labelled anti-rat Ig goat antibody (Beckman Coulter) and fluorescein isothiocyanate-labeled anti-mouse IgG2 goat antibody (Beckman Coulter) was conducted at room temperature for 30 min. For analysis, FACS Calibur (BD Biosciences) was used. As a negative control antibody, rat IgG2a (κ) isotype control (BD Biosciences) was used. For every washing operation and dilution of antibodies, 10% inactivated goat serum supplemented PBS was used.

[3] = system: porcine PD-1/PD-L1 binding; assay: Porcine PD-1/PD-L1 binding inhibition test (PD-1-EGFP COS-7 cells and PD-L1-Ig); details: antibody 0-50 μg/ml, porcine PD-L1-Ig 5 μg/ml
Method: Using ovine PD-1-EGFP expressing COS-7 cells and ovine PD-L1-Ig recombinant protein, or porcine PD-1-EGFP expressing COS-7 cells and porcine PD-L1-Ig recombinant protein, inhibition of ovine or porcine PD-1/PD-L1 binding by rat anti-bovine PD-L1 antibody […] was tested. […] Subsequently, the antibody 4G12 was reacted with 2×10^5 ovine PD-1-EGFP expressing COS-7 cells or porcine PD-1-EGFP expressing COS-7 cells at 37° C. for 30 min. After washing, ovine PD-L1-Ig or porcine PD-L1-Ig bound to cell surfaces was detected with Alexa Fluor 647-labeled anti-rabbit IgG (H+L) goat F(ab′)2 (Life Technologies). For analysis, FACS Verse (BD Biosciences) was used. As a negative control antibody, rat IgG2a (κ) isotype control (BD Biosciences) was used. Taking the proportion of PD-L1-Ig bound cells without antibody addition as 100%, the proportion of PD-L1-Ig bound cells at each antibody concentration was shown as relative value.

[4] = system: PBMCs of BLV-infected cattle; assay: Biological activity test: IFN-γ production of PBMCs of BLV-infected cattle to BLV antigen; details: 10 μg/ml antibody, 2% FLK-BLV supernatant, 6 days, n=10

B1: 4G12: rat anti-bovine PD-L1 monoclonal antibody; VL SEQ ID NO: 1, VH SEQ ID NO: 2 (antibody, listed as Rattus norvegicus, V domains shown)
VH: MGWSQIILFLVAAATCVHSQVQLQQSGAELVKPGSSVKISCKASGYTFTSNFMHWVKQQPGNGLEWIGWIYPEYGNTKYNQKFDGKATLTADKSSSTAYMQLSSLTSEDSAVYFCASEEAVISLVYWGQGTLVTVSS
VL: MESQTHVLISLLLSVSGTYGDIAITQSPSSVAVSVGETVTLSCKSSQSLLYSENQKDYLGWYQQKPGQTPKPLIYWATNRHTGVPDRFTGSGSGTDFTLIISSVQAEDLADYYCGQYLVYPFTFGPGTKLELK
Binding to porcine PD-L1 [1]: binds to ovine and porcine PD-L1 | Binding to blood macrophages (CD14+ CD11b+ cells) of water buffalo [2]: strongly bound | Binding to lymphocytes (CD14− CD11b− cells) of water buffalo [2]: weakly bound | Inhibition of porcine PD-1/PD-L1 binding [3]: capable of inhibiting | IFN-γ response of bovine PBMCs to BLV antigen [4]: increases
